Assay results published in paper doi:10.1101/2025.11.11.687647 (bioRxiv, 2025).

Target: the molecule itself
Test: SEC

B1: Mycobacterium tuberculosis pyruvate carboxylase (MtPC), full-length (enzyme)
chain: MFSKVLVANRGEIAIRAFRAAYELGVGTVAVYPYEDRNSQHRLKADESYQIGDIGHPVHAYLSVDEIVATARRAGADAIYPGYGFLSENPDLAAACAAAGISFVGPSAEVLELAGNKSRAIAAAREAGLPVLMSSAPSASVDELLSVAAGMPFPLFVKAVAGGGGRGMRRVGDIAALPEAIEAASREAESAFGDPTVYLEQAVINPRHIEVQILADNLGDVIHLYERDCSVQRRHQKVIELAPAPHLDAELRYKMCVDAVAFARHIGYSCAGTVEFLLDERGEYVFIEMNPRVQVEHTVTEEITDVDLVASQLRIAAGETLEQLGLRQEDIAPHGAALQCRITTEDPANGFRPDTGRISALRTAGGAGVRLDGSTNLGAEISPYFDSMLVKLTCRGRDLPTAVSRARRAIAEFRIRGVSTNIPFLQAVLDDPDFRAGRVTTSFIDERPQLLTARASADRGTKILNFLADVTVNNPYGSRPSTIYPDDKLPDLDLRAAPPAGSKQRLVKLGPEGFARWLRESAAVGVTDTTFRDAHQSLLATRVRTSGLSRVAPYLARTMPQLLSVECWGGATYDVALRFLKEDPWERLATLRAAMPNICLQMLLRGRNTVGYTPYPEIVTSAFVQEATATGIDIFRIFDALNNIESMRPAIDAVRETGSAIAEVAMCYTGDLTDPGEQLYTLDYYLKLAEQIVDAGAHVLAIKDMAGLLRPPAAQRLVSALRSRFDLPVHLHTHDTPGGQLASYVAAWHAGADAVDGAAAPLAGTTSQPALSSIVAAAAHTEYDTGLSLSAVCALEPYWEALRKVYAPFESGLPGPTGRVYHHEIPGGQLSNLRQQAIALGLGDRFEEIEEAYAGADRVLGRLVKVTPTSKVVGDLALALVGAGVSADEFASDPARFGIPESVLGFLRGELGDPPGGWPEPLRTAALAGRGAARPTAQLAADDEIALSSVGAKRQATLNRLLFPSPTKEFNEHREAYGDTSQLSANQFFYGLRQGEEHRVKLERGVELLIGLEAISEPDERGMRTVMCILNGQLRPVLVRDRSIASAVPAAEKADRGNPGHIAAPFAGVVTVGVCVGERVGAGQTIATIEAMKMEAPITAPVAGTVERVAVSDTAQVEGGDLLVVVS
For B1, the “stoichiometry N” value was 4.
